Here are results for two substances from PMC5494602.

This assay deals with Flag-TRAF3 (TNF receptor-associated factor 3, full length) (human (by the printed RefSeq NM_145725)) (UniProt Q13114). The experiment in a line: co-IP.
Sequence of UniProt Q13114 (Q13114 whole entry): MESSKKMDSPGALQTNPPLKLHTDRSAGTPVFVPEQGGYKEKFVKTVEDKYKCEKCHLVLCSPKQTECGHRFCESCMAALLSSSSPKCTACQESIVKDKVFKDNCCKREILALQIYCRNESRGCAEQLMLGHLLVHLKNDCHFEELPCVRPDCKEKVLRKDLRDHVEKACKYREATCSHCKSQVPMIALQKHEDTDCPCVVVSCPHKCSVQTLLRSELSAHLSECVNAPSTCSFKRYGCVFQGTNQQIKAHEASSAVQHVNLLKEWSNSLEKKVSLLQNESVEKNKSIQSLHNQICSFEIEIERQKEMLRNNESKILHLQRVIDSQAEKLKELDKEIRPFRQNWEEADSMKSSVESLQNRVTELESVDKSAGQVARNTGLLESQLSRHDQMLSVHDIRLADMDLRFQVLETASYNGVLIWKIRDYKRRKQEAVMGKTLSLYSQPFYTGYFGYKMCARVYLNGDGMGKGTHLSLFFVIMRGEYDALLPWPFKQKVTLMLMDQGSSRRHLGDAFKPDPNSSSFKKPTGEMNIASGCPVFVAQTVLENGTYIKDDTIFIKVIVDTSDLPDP

“HA-NS1 (wild-type NS1 of H5N1/HM) (natural protein)” returned a fold decrease of the MAVS-TRAF3 co-precipitate of 8.5 fold. Then “HA-NS1/126-225 (C-terminal effector domain fragment of H5N1/HM NS1) (domain or fragment)”, with 4.6 fold.
